The results in this text go back to article PMC3630103 (2013).

The target of this experiment is CHIKV pE2-E1 (E3-E2-E1) of the CHIKV-LR strain (Chikungunya virus (strain La Reunion …, UniProt Q8JUX5)). Briefly: SPR. For orientation: SPR reads the build-up and loss of mass on a sensor chip optically.
CHIKV pE2-E1 (E3-E2-E1) of the CHIKV-LR strain (Chikungunya virus, sequence (Q8JUX5 whole entry, looked up): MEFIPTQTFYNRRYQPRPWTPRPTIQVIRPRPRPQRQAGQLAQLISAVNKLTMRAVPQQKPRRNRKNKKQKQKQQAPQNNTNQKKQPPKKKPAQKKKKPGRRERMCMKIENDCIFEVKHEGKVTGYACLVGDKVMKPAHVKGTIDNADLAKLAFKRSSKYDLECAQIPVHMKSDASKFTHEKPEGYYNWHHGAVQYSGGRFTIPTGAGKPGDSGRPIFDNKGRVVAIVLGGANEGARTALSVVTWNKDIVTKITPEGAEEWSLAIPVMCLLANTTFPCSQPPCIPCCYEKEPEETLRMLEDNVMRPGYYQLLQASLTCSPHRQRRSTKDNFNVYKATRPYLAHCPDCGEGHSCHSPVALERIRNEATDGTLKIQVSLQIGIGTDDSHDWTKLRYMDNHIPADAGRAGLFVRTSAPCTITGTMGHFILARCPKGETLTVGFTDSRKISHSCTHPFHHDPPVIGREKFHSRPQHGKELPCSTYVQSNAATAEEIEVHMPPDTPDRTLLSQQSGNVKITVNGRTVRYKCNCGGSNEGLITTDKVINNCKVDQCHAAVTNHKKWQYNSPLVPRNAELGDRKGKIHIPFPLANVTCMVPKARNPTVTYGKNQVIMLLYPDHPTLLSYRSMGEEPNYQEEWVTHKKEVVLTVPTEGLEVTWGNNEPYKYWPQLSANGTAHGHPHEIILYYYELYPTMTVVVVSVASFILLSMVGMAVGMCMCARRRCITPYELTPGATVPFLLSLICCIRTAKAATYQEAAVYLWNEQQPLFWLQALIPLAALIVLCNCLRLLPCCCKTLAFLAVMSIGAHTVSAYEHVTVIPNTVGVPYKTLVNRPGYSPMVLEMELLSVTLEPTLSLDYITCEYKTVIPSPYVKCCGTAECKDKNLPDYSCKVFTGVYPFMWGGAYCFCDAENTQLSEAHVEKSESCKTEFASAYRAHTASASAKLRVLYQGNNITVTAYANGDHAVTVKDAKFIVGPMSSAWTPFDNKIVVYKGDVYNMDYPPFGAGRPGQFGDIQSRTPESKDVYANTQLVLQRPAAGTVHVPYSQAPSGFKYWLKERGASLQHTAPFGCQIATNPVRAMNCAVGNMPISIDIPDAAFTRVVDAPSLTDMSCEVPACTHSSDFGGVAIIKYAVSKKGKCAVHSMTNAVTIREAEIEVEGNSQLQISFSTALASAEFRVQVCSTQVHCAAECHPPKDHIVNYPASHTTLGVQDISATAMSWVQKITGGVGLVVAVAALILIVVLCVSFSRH

B1: chimeric mouse-human CHK-152 N297Q (aglycosyl variant) (antibody, V domains shown)
VH: QVQLQQPGAALVKPGASAMMSCKASGYTFTSYWITWVKQRPGQGLEWIGDIYPGTGRTIYKEKFKTKATLTVDTSSSTAFMQLNSLTSEDSAVYYCARGYGSPYYALDYWGQGTSVTVSS
VL: DIVLTQSPASLAVSQGQRATISCKASQSVDYDGDSYVNWYQQKPGQSPKLLIYDASNLESGIPARFSGSGSGTDFTLNIHPVEEEDVATYYCQESNEDPRTFGGGTKLEIK
The Kd is the concentration at which binding is half-saturated. Low values mean higher affinity, high ones lower affinity. Usually koff stands for the rate constant with which the complex falls apart. A higher koff goes with fast dissociation. Molecule B1 had an equilibrium dissociation constant (Kd) of 3.9 nM and an off-rate constant (koff) of 0.00051 s⁻¹.

B2: chimeric mouse-human CHK-152 (antibody, V domains shown)
VH: QVQLQQPGAALVKPGASAMMSCKASGYTFTSYWITWVKQRPGQGLEWIGDIYPGTGRTIYKEKFKTKATLTVDTSSSTAFMQLNSLTSEDSAVYYCARGYGSPYYALDYWGQGTSVTVSS
VL: DIVLTQSPASLAVSQGQRATISCKASQSVDYDGDSYVNWYQQKPGQSPKLLIYDASNLESGIPARFSGSGSGTDFTLNIHPVEEEDVATYYCQESNEDPRTFGGGTKLEIK
For the molecule B2, the Kd was found to be 3.1 nM and the koff is 0.0004 s⁻¹.
